The assay has as its target E. coli RNA polymerase holoenzyme Eσ^70 (His10-PPX-RNAP with σ^70) (E. coli) (UniProt P0A7Z4). The assay can be described thus: native MS.

For orientation: stoichiometry N means a count of units in the complex or per binding partner. “KorA (wild type), C-terminally His-tagged (from UniProt P03052) (natural protein)” showed a stoichiometry N of 2.

The record behind these values is paper doi:10.1101/2024.02.16.579611.
